From paper PMC9414842

Target: human large conductance voltage- and calcium-activated potassium channel (hBK) (human) (UniProt Q12791)
Experiment: cryo-EM structure; random spherically constrained (RSC) single-particle cryo-EM of hBK reconstituted into POPC liposomes, without Ca2+ (20 mM HEPES pH 7.4, 150 mM KCl, 2 mM EDTA); map with C2 symmetry at 3.48 Å

Sequence of human large conductance voltage- and calcium-activated potassium channel (hBK), Q12791 1-1236 (natural protein; other documents disagree on this pair) (Q12791 whole entry): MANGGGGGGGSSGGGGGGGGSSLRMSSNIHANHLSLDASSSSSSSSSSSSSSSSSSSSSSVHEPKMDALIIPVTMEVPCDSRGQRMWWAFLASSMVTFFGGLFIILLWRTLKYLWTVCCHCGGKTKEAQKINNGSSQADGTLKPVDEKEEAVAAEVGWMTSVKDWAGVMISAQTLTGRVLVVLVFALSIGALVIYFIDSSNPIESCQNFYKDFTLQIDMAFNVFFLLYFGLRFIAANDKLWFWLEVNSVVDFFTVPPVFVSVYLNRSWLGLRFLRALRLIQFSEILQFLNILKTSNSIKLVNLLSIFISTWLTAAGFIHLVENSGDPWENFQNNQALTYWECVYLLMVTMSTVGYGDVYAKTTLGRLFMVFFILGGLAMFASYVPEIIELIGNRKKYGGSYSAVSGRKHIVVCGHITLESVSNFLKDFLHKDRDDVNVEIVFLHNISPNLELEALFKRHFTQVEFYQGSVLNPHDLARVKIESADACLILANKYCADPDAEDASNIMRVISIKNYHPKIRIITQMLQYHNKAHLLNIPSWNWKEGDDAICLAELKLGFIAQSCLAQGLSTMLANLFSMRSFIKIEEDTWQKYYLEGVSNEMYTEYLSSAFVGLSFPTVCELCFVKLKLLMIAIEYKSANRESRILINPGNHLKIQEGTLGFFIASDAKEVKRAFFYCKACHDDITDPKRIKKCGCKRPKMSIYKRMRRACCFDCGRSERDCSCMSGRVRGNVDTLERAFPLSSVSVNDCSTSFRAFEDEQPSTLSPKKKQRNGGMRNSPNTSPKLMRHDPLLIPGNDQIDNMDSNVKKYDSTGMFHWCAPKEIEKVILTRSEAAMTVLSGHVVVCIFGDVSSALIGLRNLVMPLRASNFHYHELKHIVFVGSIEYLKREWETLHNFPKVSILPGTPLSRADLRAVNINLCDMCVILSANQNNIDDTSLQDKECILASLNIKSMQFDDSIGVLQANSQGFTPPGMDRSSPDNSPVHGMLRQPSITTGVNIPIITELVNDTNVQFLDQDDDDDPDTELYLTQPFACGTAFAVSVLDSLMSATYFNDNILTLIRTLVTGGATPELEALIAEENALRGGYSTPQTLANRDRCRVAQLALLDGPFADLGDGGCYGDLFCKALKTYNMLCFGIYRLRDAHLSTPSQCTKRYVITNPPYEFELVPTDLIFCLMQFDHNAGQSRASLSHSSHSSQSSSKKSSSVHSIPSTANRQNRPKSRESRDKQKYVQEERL

Substance: human large conductance voltage- and calcium-activated potassium channel (hBK), Q12791 1-1236 (natural protein; other documents disagree on this pair)
- stoichiometry N: 4
